Test results reported in PMC3419264, “ATPase Site Architecture Is Required for Self-Assembly and Remodeling Activity of a Hexameric AAA+ Transcriptional Activator” (Molecular Cell, 2012).

System: T1, Nc1ncnc2c1ncn2[C@@H]1O[C@H](COP(=O)(O)OP(=O)(O)OP(=O)(O)O)[C@@H](O)[C@H]1O
T1 construct: AAA+ domain, residues 1-275; purified as in Joly et al. 2006; hexamer
Assay: steady-state ATPase assay, NADH-coupled regeneration system
Assay type: biochemical, Escherichia coli
Conditions: 37 °C, without σ54, turnover given as Vmax (min^-1), maximal error 10%
From the text: steady-state ATPase assay, NADH-coupled regeneration system on PspF1-275

Going from “PspF1-275 (Escherichia coli K-12; R162A)” to “PspF1-275 (Escherichia coli K-12; E118D)”, the Km rises from 90 µM to 800 µM (8.9-fold).

“PspF1-275 (Escherichia coli K-12; R122A)” and PspF1-275 (Escherichia coli K-12; E43D) are within 1.5-fold of each other in Km: 300 µM for the first, 250 µM for the second.

Compared with PspF1-275 (Escherichia coli K-12; E43A), “PspF1-275 (Escherichia coli K-12; R162K)” is 3.8-fold lower in Km: 750 µM for the first, 200 µM for the second.

Compared with “PspF1-275 (Escherichia coli K-12; Y126A)”, PspF1-275 (Escherichia coli K-12; L44A) is 2.1-fold lower in Km: 650 µM for the first, 310 µM for the second.

Going from “PspF1-275 (Escherichia coli K-12; R162A)” to “PspF1-275 (Escherichia coli K-12; E118D)”, the kcat rises from 0.18 ± 0.02 min⁻¹ to 20.23 ± 3.70 min⁻¹.

First: PspF1-275 (Escherichia coli K-12; R122A)
Second: PspF1-275 (Escherichia coli K-12; E43D)
The kcat of the first is lower: 1.26 ± 0.03 min⁻¹ for the first, 22.26 ± 4.80 min⁻¹ for the second.

First: PspF1-275 (Escherichia coli K-12; E43A)
Second: PspF1-275 (Escherichia coli K-12; E43Y)
The kcat of the first is lower: 1.37 ± 0.10 min⁻¹ for the first, 2.49 ± 0.17 min⁻¹ for the second.

Compared with “PspF1-275 (Escherichia coli K-12; R162K)”, “PspF1-275 (Escherichia coli K-12; Y126A)” is higher in kcat: 1.88 ± 0.29 min⁻¹ for the first, 11.95 ± 1.77 min⁻¹ for the second.

PspF1-275 (Escherichia coli K-12; L44A) and PspF1-275 (Escherichia coli K-12; L9A) are within error of each other in kcat: 18.16 ± 2.42 min⁻¹ for the first, 20.72 ± 2.55 min⁻¹ for the second.

With PspF1-275 (Escherichia coli K-12; E43Y) the Km was 1,250 μM.
With PspF1-275 (Escherichia coli K-12; L9A) the Km was 2,300 μM.
